# Patent US5130300A, “Method for enhancing growth of mammary parenchyma” (Monsanto Company, priority 1987, dated 1992)
# B1: Ovine Prolactin: ovine prolactin from Sigma Chemical Co. (Lot No. 26F-0076), comparative example (protein, UniProt P01240 31-229, looked up)
# Prolactin: TPVCPNGPGNCQVSLRDLFDRAVMVSHYIHNLSSEMFNEFDKRYAQGKGFITMALNSCHTSSLPTPEDKEQAQQTHHEVLMSLILGLLRSWNDPLYHLVTEVRGMKGVPDAILSRAIEIEEENKRLLEGMEMIFGQVIPGAKETEPYPVWSGLPSLQTKDEDARHSAFYNLLHCLRRDSSKIDTYLKLLNCRIIYNNNC
# B2: BST: N-methionyl bovine somatotropin prepared by expression of recombinant DNA (protein, UniProt P01246 27-217, looked up)
# Somatotropin: AFPAMSLSGLFANAVLRAQHLHQLAADTFKEFERTYIPEGQRYSIQNTQVAFCFSETIPAPTGKNEAQQKSDLELLRISLLLIQSWLGPLQFLSRVFTNSLVFGTSDRVYEKLKDLEEGILALMRELEDGTPRAGQILKQTYDKFDTNMRSDDALLKNYGLLSCFRKDLHKTETYLRVMKCRRFGEASCAF
# modifications: N-terminal Met
# notes: N-methionyl bovine somatotropin prepared by expression of recombinant DNA
# Columns and labels:
# [1] = tested on: Quarter-Udders in Pregnant Beef Cattle; experiment: Intramammary infusion of ovine prolactin, quarter-udder weights and DNA (Comparative Examples); format: in vivo, cross-bred beef cows
# Experimental: 16 pregnant, non-lactating, cross-bred beef cows in their last 30-105 days of gestation were divided into 2 groups and tested for the effects of intramammary infusion using the procedures of Examples 25-28 except that instead of a prostaglandin, each treatment infusion contained either 2 mg (Group 1) or 10 mg (Group 2) of ovine prolactin obtained from Sigma Chemical Co., St. Louis, Mo. (Lot No. 26F-0076) in 10 ml of an emulsion of 0.9% saline containing 0.5% Tween-20 in sterile sesame oil containing 5% Arlacel A (3:2 oil: saline). Results are in Tables 22-23.
# [2] = tested on: Quarter-Udders in Pregnant Holstein Heifers; experiment: Intramammary infusion, milk production per udder side in first 30 days after parturition (Examples 23-24, 42-43); format: in vivo
# Experimental: 18 pregnant Holstein heifers within their last 40-60 days of expected calving were housed in a free-stall facility, fed a ration of alfalfa hay and pelleted concentrate and administered 10 ml of an excipient (sterile sesame oil) into each quarter-udder by intramammary infusion through the steak canal every third day for the number of treatments shown below. The heifers in Groups 1 and 3 were treated no later than their fifth day before parturition; treatments of those in Groups 2 and 4 were continued into their last five days. Treatments containing a mitogenic substance were administered to both quarter-udders on one side of each animal. Excipient only was administered to both quarter-udders on the opposite side of that animal. All infusions were carried out with a Jorgensen laboratories infusion canula of the kind used in Examples 1-2. Each teat was sprayed with 70% ethanol and wiped dry prior to treatment, and dipped with an iodine solution following treatment. These animals were milked normally each a.m. and p.m. for the first 30 days after parturition, with milk production recorded separately for each quarter-udder. […] Shown in Table 21 are the milk production results obtained with the heifers of Group 3 in Examples 23-24. On average, milk production by the half-udders that had been treated in Group 4 of Examples 23-24 slightly exceeded (2%, p<0.4) that of their control half-udders.
# [3] = tested on: Quarter-Udders in Pregnant Beef Cows; experiment: Intramammary infusion of BST, quarter-udder weights and DNA (Examples 40-41); format: in vivo, cross-bred beef cows; conditions: for DNA, % Increase, (A-B)/B / DNA, Mean Increase (A-B) / Dry Fat-Free Weight, % Increase, (A-B)/B / Dry Fat-Free Weight, Mean Increase (A-B) / Dry Weight, % Increase, (A-B)/B / Dry Weight, Mean Increase (A-B) / Wet Weight, % Increase, (A-B)/B / Wet Weight, Mean Increase (A-B): B = excipient only
# Experimental: 24 pregnant, non-lactating, cross-bred beef cows in their last 40-80 days of gestation were divided into 2 groups and tested for the effects of intramammary infusion using the procedures of Examples 3-6 except that (A) the volume of excipient in each infusion was 5 ml and (B) each treatment infusion contained a 1% zinc salt of an N-methionyl bovine somatotropin (BST) (Group 1-100 mg; Group 2-40 mg) prepared by expression of recombinant DNA and purified essentially as described in Example 1A of U.S. Patent Appln. No. 787,873 filed Oct. 16, 1985 based on European Patent Appln. No. 177,478 published Apr. 9, 1986, both incorporated here by reference. Results are in Tables 19-20.
# [4] = Group 1: total of 10 milligrams (2 mg per infusion)
# [5] = Group 1: total of 10 milligrams, B = control mean
# [6] = Group 2: total dose of 50 milligrams (10 mg per infusion)
# [7] = Group 2: total dose of 50 milligrams, B = control mean
# [8] = Group 1: total of 500 milligrams BST
# [9] = Group 1: total of 500 milligrams BST (100 mg per infusion)
# [10] = Group 2: total of 200 milligrams BST
# [11] = Group 2: total of 200 milligrams BST (40 mg per infusion)
molecule,measurement,setting,value
B1,"DNA, Treatment Mean",[1]; [4],2526 mg
same,"Dry Fat-Free Weight, Treatment Mean",[1]; [4],137.8 g
same,"Dry Weight, Treatment Mean",[1]; [4],262.7 g
same,"Wet Weight, Treatment Mean",[1]; [4],895.3 g
same,"Dry Fat-Free Weight, % Increase, (A-B)/B",[1]; [5],.88%
same,"Dry Fat-Free Weight, Mean Increase (A-B)",[1]; [5],1.2 g
same,"Dry Weight, % Increase, (A-B)/B",[1]; [5],1.0%
same,"Dry Weight, Mean Increase (A-B)",[1]; [5],4.8 g
same,"Wet Weight, % Increase, (A-B)/B",[1]; [5],.6%
same,"Wet Weight, Mean Increase (A-B)",[1]; [5],5.4 g
same,"DNA, Treatment Mean",[1]; [6],3672 mg
same,"Dry Fat-Free Weight, Treatment Mean",[1]; [6],189.2 g
same,"Dry Weight, Treatment Mean",[1]; [6],343.4 g
same,"Wet Weight, Treatment Mean",[1]; [6],1487.1 g
same,"DNA, % Increase, (A-B)/B",[1]; [7],10.5%
same,"DNA, Mean Increase (A-B)",[1]; [7],350 mg
same,"Dry Fat-Free Weight, % Increase, (A-B)/B",[1]; [7],2.5%
same,"Dry Fat-Free Weight, Mean Increase (A-B)",[1]; [7],4.7 g
same,"Wet Weight, % Increase, (A-B)/B",[1]; [7],13.6%
same,"Wet Weight, Mean Increase (A-B)",[1]; [7],178.6 g
B2,"Average Milk Production, Treated Side (A)","[2]; BST 50 mg per infusion every third day, no later than fifth day before parturition (Group 3 per text), first 30 days after parturition",10.9 kg/day
same,"Average Milk Production, % Increase, (A-B)/B","[2]; BST 50 mg per infusion, no later than fifth day before parturition (Group 3 per text), B = control side, excipient only",11%
same,Milk production of treated half-udders in excess of control half-udders,"[2]; Group 4: BST 50 mg per infusion, treatments continued into last five days before parturition",2%
same,"DNA, Avg. % Increase/Animal",[3]; [8],10.5%
same,"Dry Fat-Free Weight, Avg. % Increase/Animal",[3]; [8],7.9%
same,"Dry Weight, Avg. % Increase/Animal",[3]; [8],10.7%
same,"Wet Weight, Avg. % Increase/Animal",[3]; [8],9.8%
same,"DNA, Treatment Mean",[3]; [9],2185 mg
same,"Dry Fat-Free Weight, Treatment Mean",[3]; [9],146.7 g
same,"Dry Weight, Treatment Mean",[3]; [9],207.6 g
same,"Wet Weight, Treatment Mean",[3]; [9],790.1 g
same,"DNA, % Increase, (A-B)/B",[3]; [8],6.4%
same,"DNA, Mean Increase (A-B)",[3]; [8],131 mg
same,"Dry Fat-Free Weight, % Increase, (A-B)/B",[3]; [8],3.6%
same,"Dry Fat-Free Weight, Mean Increase (A-B)",[3]; [8],5.2 g
same,"Dry Weight, % Increase, (A-B)/B",[3]; [8],8.9%
same,"Dry Weight, Mean Increase (A-B)",[3]; [8],17.0 g
same,"Wet Weight, % Increase, (A-B)/B",[3]; [8],7.3%
same,"Wet Weight, Mean Increase (A-B)",[3]; [8],53.5 g
same,"DNA, Avg. % Increase/Animal",[3]; [10],15.8%
same,"Dry Fat-Free Weight, Avg. % Increase/Animal",[3]; [10],7.8%
same,"Dry Weight, Avg. % Increase/Animal",[3]; [10],10.7%
same,"Wet Weight, Avg. % Increase/Animal",[3]; [10],13.4%
same,"DNA, Treatment Mean",[3]; [11],1371 mg
same,"Dry Fat-Free Weight, Treatment Mean",[3]; [11],49.5 g
same,"Dry Weight, Treatment Mean",[3]; [11],96.4 g
same,"Wet Weight, Treatment Mean",[3]; [11],396.9 g
same,"DNA, % Increase, (A-B)/B",[3]; [10],5.5%
same,"DNA, Mean Increase (A-B)",[3]; [10],72 mg
same,"Dry Fat-Free Weight, % Increase, (A-B)/B",[3]; [10],10.5%
same,"Dry Fat-Free Weight, Mean Increase (A-B)",[3]; [10],4.7 g
same,"Dry Weight, % Increase, (A-B)/B",[3]; [10],13.3%
same,"Dry Weight, Mean Increase (A-B)",[3]; [10],11.3 g
same,"Wet Weight, % Increase, (A-B)/B",[3]; [10],14.9%
same,"Wet Weight, Mean Increase (A-B)",[3]; [10],51.5 g
